{"source": "patent US10532083B2", "about": "“Methods for inducing differentiation or conversion of white adipocytes and/or preadipocytes to brown adipocites using FGF8” (Technische Universität München, priority 2014, dated 2020)", "key": {"[1]": {"system": "visceral, epididymal white adipocytes", "assay": "Ucp1 / brown adipocyte marker mRNA (qPCR) in immortalized epididymal white adipocytes treated with FGFs", "type": "cell-based, murine", "conditions": "for Induction of Ucp1 mRNA expression (browning potential), screening of paracrine FGFs and FGF8 spliceforms: epididymal adipocytes, six days of differentiation, FGF8a, b, e, f 25.0 ng/ml, FGF17 10.0 ng/ml", "protocol": "Screening paracrine FGFs for a browning potential. A, B—Screening of all paracrine FGFs in immortalized white adipocytes. Subcutaneous, inguinal and visceral, epididymal white adipocytes were grown to confluence in Dulbecco's modified Eagle's medium with 4.5 g/l glucose, supplemented with 20 nmol/l insulin, 1 nmol/l triiodothyronine, 20% fetal bovine serum, and penicillin/streptomycin. Upon reaching confluence, differentiation was induced with 500 mmol/l isobutylmethylxanthine, 250 mmol/l indomethacine, and 2 mg/ml dexamethasone for 24 hours. Subsequently, members of the paracrine FGF protein family were added to the medium for the following six days. The medium and the FGF indicated were changed every 48 hours. Untreated cells served as a negative control. At the end of the differentiation process total RNA was isolated using TRIzol reagents, RNA quality and concentration was measured by photometric analysis, and 5 μg of total RNA was reverse-transcribed to cDNA. Finally, quantitative analysis of UCP-1 mRNA expression was performed. A bar graph analysis including the SEM of 3 to 6 independent experiments is shown. […] B—Four different splicing forms of the Fgf8 gene were compared by quantifying Ucp1 mRNA expression in fully differentiated white adipocytes. UCP-1 mRNA abundance is shown in percent of the FGF8b value. Fgf8b and Fgf8f were able to increase expression in epididymal adipocytes. C—Illustration depicting the different exon usage that characterizes the FGF8 spliceforms a, b, e, and f.\nDose dependency of Ffg8b action. A, B—Subcutaneous, inguinal and visceral, epididymal white adipocytes were grown to confluence in Dulbecco's modified Eagle's medium with 4.5 g/l glucose, supplemented with 20 nmol/l insulin, 1 nmol/l triiodothyronine, 20% fetal bovine serum, and penicillin/streptomycin. Upon reaching confluence, differentiation was induced with 500 mmol/l isobutylmethylxanthine, 250 mmol/l indomethacine, and 2 mg/ml dexamethasone for 24 hours. Subsequently, FGF8b in five indicated concentrations were added to the medium for the following six days. The medium and the FGF8b were changed every 48 hours. Untreated cells served as a negative control. At the end of the differentiation process total RNA was isolated using TRIzol reagents, RNA quality and concentration was measured by photometric analysis, and 5 μg of total RNA was reverse-transcribed to cDNA. Finally, quantitative analysis of UCP-1 mRNA expression was performed. FGF8b induces Ucp1 mRNA abundance in inguinal and epididymal adipocytes. Epididymal fat cells were more dose dependently responsive to Fgf8b treatment as compared to inguinal cells. The latter were responsive to FGF8b treatment above the threshold indicated. B—The absolute increase of several genes typical for brown fat cells.\nTreatment timecourse experiment. A, B—Subcutaneous, inguinal and visceral, epididymal white adipocytes were grown to confluence (prolif. denotes proliferation period) in Dulbecco's modified Eagle's medium with 4.5 g/l glucose, supplemented with 20 nmol/l insulin, 1 nmol/l triiodothyronine, 20% fetal bovine serum, and penicillin/streptomycin. Upon reaching confluence, differentiation was induced with 500 mmol/l isobutylmethylxanthine, 250 mmol/l indomethacine, and 2 mg/ml dexamethasone for 24 hours (induction). Subsequently, the cells were cultured for another six days (differentiation). At the end of the differentiation process total RNA was isolated using TRIzol reagents, RNA quality and concentration was measured by photometric analysis, and 5 μg of total RNA was reverse-transcribed to cDNA. Finally, quantitative analysis of UCP-1 mRNA expression was performed. Untreated cells served as a negative control. A bar graph analysis including the SEM of 5 independent experiments is shown. A—Epididymal fat cells were treated with FGF8b during different time windows as given by black squares indicating one day of treatment each. […]"}, "[2]": {"system": "epididymal white adipose tissue", "type": "in vivo, adult male 129Sv/ev mice", "source_text": "Implantation of Ffg8b releasing pellets into the visceral, epididymal white adipose tissue depot leads to recruitment of brown adipocytes. A—Representative photographs centered on the implantation site of three control pellets (upper panels) and three Fgf8b pellets (lower panels). The epididymal fat depot is discernible in light gray shades surrounded by darker non-adipose tissues. The area of visible browning is marked by a dotted line. B—To highlight “visual browning” in this gray-scale images we digitally removed all pixels with a colour saturation of more than 162 (on a scale of 0-255). Here, white areas correspond to brown colour on a background of whitish adipose tissue. C—The mRNA abundance of several brown adipocyte marker genes in the entire depot. Ucp1 and Cox7a1 mRNA are increased by Fgf8b treatment but not by the placebo pellet. Physiological data of animals implanted with drug release pellets. A—The absolute body mass of mice was not altered by Fgf8b. […] C—The masses of the implanted epididymal fat depot and the contralateral non-implanted depot were not different. Interscapular brown adipose tissue was not different in placebo and Fgf8b treated animals. […] E—Plasma metabolites of carbohydrate and lipid metabolisms were not affected by Fgf8b treatment (GLU—glucose, CHOL—total cholesterol, nHDLc—non-HDL cholesterol, HDL—high density lipoproteins, LDL—low density lipoproteins, VLDL—very low density lipoproteins, TRIG—triglycerides). F—Liver enzymes in the plasma were not altered by Fgf8b treatment. Pellets 1.5 mm in diameter were fabricated from a biodegradable matrix to locally release 100 ng FGF8b per day for 21 days (Innovative Research of America, Sarasota, Fla., USA). […] To implant a pellet into the subcutaneous adipose tissue, a mouse of the 129Sv/ev strain was anesthetized, abdominal fur removed and the pellet pushed into the depot through a short cut in the skin. To target the visceral adipose tissue, the pellet was introduced through a small cut each into skin and abdominal wall and placed between lobes of epididymal adipose tissue. Mice were kept in a specific pathogen free barrier facility at room temperature in a 12:12 hour light:dark cycle with free access to food and water. Three weeks after implantation mice were killed by carbon dioxide exposure and dissected. Blood parameters were analyzed with an automated clinical chemistry analyzer (Piccolo xpress system, Abaxis, Darmstadt, Germany). All animal experiments were performed according to the German animal welfare law (permission no. 55.2-1-54-2532-174-11). To investigate the ability of FGF8b to transform white adipose tissue into brown adipose tissue in vivo, we obtained pellets that release 100 ng FGF8b per day and placebo pellets. One pellet each was implanted into the epididymal white adipose tissue of adult male 129Sv/ev mice. After three weeks mice were sacrificed and the tissue analyzed. […] In summary, we found no evidence of any gross metabolic difference between treatment groups."}, "[3]": {"conditions": "RNA preparation of complete unilateral epididymal depot, 100 ng per day, three weeks, vs placebo pellet"}}}
{"molecule": "FGF8b: murine recombinant paracrine fibroblast growth factor 8, major spliceform b (R&D Systems); amino acid sequence identical to human, SEQ ID NO:16/20 (protein, human FGF8b) MGSPRSALSCLLLHLLVLCLQAQVTVQSSPNFTQHVREQSLVTDQLSRRLIRTYQLYSRTSGKHVQVLANKRINAMAEDGDPFAKLIVETDTFGSRVRVRGAETGLYICMNKKGKLIAKSNGKGKDCVFTEIVLENNYTALQNAKYEGWYMAFTRKGRPRKGSKTRQHQREVHFMKRLPRGHHTTEQSLRFEFLNYPPFTRSLRGSQRTWAPEPR", "values": [{"measurement": "Pgc1a mRNA", "setting": "[1]; continuous treatment during differentiation, fully differentiated adipocytes (FIG. 2B)", "result": "strongly downregulated"}, {"measurement": "Induction of Ucp1 mRNA expression (browning potential), screening of paracrine FGFs and FGF8 spliceforms", "setting": "[1]", "result": "increased expression of Ucp1 mRNA expression"}, {"measurement": "Induction of Ucp1 mRNA expression (browning potential), screening of paracrine FGFs and FGF8 spliceforms", "setting": "[1]; listed as Fgf8b", "result": "effective"}, {"measurement": "Ucp1 mRNA abundance, dose dependency", "setting": "[1]; epididymal cells, different concentrations during entire differentiation phase of 6 days", "result": "dose dependent manner"}, {"measurement": "Most effective concentration for Ucp1 induction", "setting": "[1]; epididymal cells, highest concentration tested, 6 days of differentiation", "result": 125, "unit": "ng/mL"}, {"measurement": "Final Ucp1 mRNA abundance after full differentiation", "setting": "[1]; epididymal cells, treatment during the induction period", "result": "inhibited Ucp1 induction"}, {"measurement": "Ucp1 mRNA abundance, induction", "setting": "[1]; fully differentiated epididymal cell line, treatment after induction for entire differentiation period of 6 days, screening concentration 25.0 ng/ml, untreated cells as control", "result": 27.4, "unit": "fold"}, {"measurement": "Relationship between depot mass and body mass", "setting": "[2]; 100 ng per day, three weeks, vs placebo (FIG. 7D)", "result": "not influenced"}, {"measurement": "Depot mass of implanted and non-implanted epididymal fat and of interscapular brown adipose tissue", "setting": "[2]; 100 ng per day, three weeks, vs placebo group", "result": "not different between groups"}, {"measurement": "Final body weight", "setting": "[2]; 100 ng per day, three weeks, vs placebo group, lean healthy mice", "result": "comparable"}, {"measurement": "Plasma metabolites of carbohydrate and lipid metabolisms (GLU, CHOL, nHDLc, HDL, LDL, VLDL, TRIG)", "setting": "[2]; 100 ng per day, three weeks, vs placebo, Piccolo xpress analyzer", "result": "not affected"}, {"measurement": "Change in body weight during the 3 weeks of treatment", "setting": "[2]; 100 ng per day, vs placebo group", "result": "comparable"}, {"measurement": "Cox7a1 mRNA abundance in the entire depot", "setting": "[2]; [3]", "result": "increased"}, {"measurement": "Ucp1 mRNA abundance in the entire depot", "setting": "[2]; [3]", "result": "increased"}, {"measurement": "Systemic adverse reaction", "setting": "[2]; mouse, in vivo", "result": "no evidence for any systemic adverse reaction"}, {"measurement": "Extent of browned area away from the implanted pellet", "setting": "[2]; one pellet releasing 100 ng FGF8b per day, three weeks", "result": "approximately 3 mm"}, {"measurement": "Colour of implantation site and surrounding adipose tissue by visual inspection", "setting": "[2]; one pellet releasing 100 ng FGF8b per day, three weeks, placebo site and contralateral depot remained white", "result": "brown colour"}]}
